In paper PMC9482650, “Quantitative fragmentomics allow affinity mapping of interactomes” (Nature Communications, 2022):

biological target: T1, ARHGEF11, O15085; experiment: holdup assay; design: key: below the threshold = too weak to quantify, mostly under pKd 3.1 to 4; settings: plain residues with an end cap or a label only (N-terminal biotin on a linker: ado-ado)
T1 sequence (O15085 42-136, limits assumed, looked up): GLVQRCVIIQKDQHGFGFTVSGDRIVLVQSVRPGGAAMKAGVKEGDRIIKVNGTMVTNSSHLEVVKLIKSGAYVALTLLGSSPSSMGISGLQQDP

Binder | pKd
TGLWKHETTV [ADGRA3, Q8IWK6] | 4.31
PYPTADHMLA [JUP, P14923] | below the threshold

biological target: CASK, O14936; experiment: holdup assay; design: key: below the threshold = too weak to quantify, mostly under pKd 3.1 to 4; settings: plain residues with an end cap or a label only (N-terminal biotin on a linker: ado-ado)
Sequence (O14936 487-570): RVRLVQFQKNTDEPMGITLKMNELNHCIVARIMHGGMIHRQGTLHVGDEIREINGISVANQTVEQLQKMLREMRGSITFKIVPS

Binder | pKd
TGLWKHETTV [ADGRA3, Q8IWK6] | below the threshold
PYPTADHMLA [JUP, P14923] | below the threshold

biological target: T2, DFNB31_1, Q9P202; experiment: holdup assay; design: key: below the threshold = too weak to quantify, mostly under pKd 3.1 to 4; settings: plain residues with an end cap or a label only (N-terminal biotin on a linker: ado-ado)
T2 sequence (Q9P202 135-233, limits assumed, looked up): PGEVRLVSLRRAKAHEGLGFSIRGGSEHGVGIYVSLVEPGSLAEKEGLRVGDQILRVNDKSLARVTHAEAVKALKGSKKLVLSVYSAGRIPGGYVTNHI

Binder | pKd
TGLWKHETTV [ADGRA3, Q8IWK6] | 3.9
PYPTADHMLA [JUP, P14923] | below the threshold

biological target: T3, DFNB31_2, Q9P202; experiment: holdup assay; design: key: below the threshold = too weak to quantify, mostly under pKd 3.1 to 4; settings: plain residues with an end cap or a label only (N-terminal biotin on a linker: ado-ado)
T3 sequence (Q9P202 274-371, limits assumed, looked up): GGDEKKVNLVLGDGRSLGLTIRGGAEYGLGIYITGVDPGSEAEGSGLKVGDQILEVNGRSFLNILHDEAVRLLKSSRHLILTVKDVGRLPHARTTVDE

Binder | pKd
TGLWKHETTV [ADGRA3, Q8IWK6] | below the threshold
PYPTADHMLA [JUP, P14923] | below the threshold

biological target: DLG1_2, Q12959; experiment: holdup assay; design: key: below the threshold = too weak to quantify, mostly under pKd 3.1 to 4; settings: plain residues with an end cap or a label only (N-terminal biotin on a linker: ado-ado)
Sequence (Q12959 314-412): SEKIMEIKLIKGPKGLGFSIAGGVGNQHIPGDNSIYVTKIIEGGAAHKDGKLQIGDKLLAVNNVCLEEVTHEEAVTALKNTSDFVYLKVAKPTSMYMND

Binder | pKd
TGLWKHETTV [ADGRA3, Q8IWK6] | 5.48
PYPTADHMLA [JUP, P14923] | 3.6

biological target: DLG5_1, Q8TDM6; experiment: holdup assay; design: key: below the threshold = too weak to quantify, mostly under pKd 3.1 to 4; settings: plain residues with an end cap or a label only (N-terminal biotin on a linker: ado-ado)
Sequence (Q8TDM6 617-713): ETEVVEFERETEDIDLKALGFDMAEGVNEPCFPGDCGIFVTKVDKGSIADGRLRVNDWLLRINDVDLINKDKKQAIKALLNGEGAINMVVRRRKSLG

Binder | pKd
TGLWKHETTV [ADGRA3, Q8IWK6] | below the threshold
PYPTADHMLA [JUP, P14923] | below the threshold

biological target: FRMPD2_1, Q68DX3; experiment: holdup assay; design: key: below the threshold = too weak to quantify, mostly under pKd 3.1 to 4; settings: plain residues with an end cap or a label only (N-terminal biotin on a linker: ado-ado)
Sequence (Q68DX3 770-861): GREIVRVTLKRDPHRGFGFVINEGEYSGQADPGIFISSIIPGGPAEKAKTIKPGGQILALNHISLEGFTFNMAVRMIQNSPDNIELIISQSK

Binder | pKd
TGLWKHETTV [ADGRA3, Q8IWK6] | below the threshold
PYPTADHMLA [JUP, P14923] | below the threshold

biological target: FRMPD3, Q5JV73; experiment: holdup assay; design: key: below the threshold = too weak to quantify, mostly under pKd 3.1 to 4; settings: plain residues with an end cap or a label only (N-terminal biotin on a linker: ado-ado)
Sequence (Q5JV73 12-100): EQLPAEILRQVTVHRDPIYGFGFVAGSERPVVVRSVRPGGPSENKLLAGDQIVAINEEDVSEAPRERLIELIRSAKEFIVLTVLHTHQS

Binder | pKd
TGLWKHETTV [ADGRA3, Q8IWK6] | below the threshold
PYPTADHMLA [JUP, P14923] | below the threshold

biological target: GIPC2, Q8TF65; experiment: holdup assay; design: key: below the threshold = too weak to quantify, mostly under pKd 3.1 to 4; settings: plain residues with an end cap or a label only (N-terminal biotin on a linker: ado-ado)
Sequence (Q8TF65 112-203): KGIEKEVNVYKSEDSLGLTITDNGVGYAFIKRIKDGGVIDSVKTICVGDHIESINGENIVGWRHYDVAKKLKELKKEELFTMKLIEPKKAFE

Binder | pKd
TGLWKHETTV [ADGRA3, Q8IWK6] | 4.1
PYPTADHMLA [JUP, P14923] | below the threshold

biological target: T4, GRIP1_3, Q9Y3R0; experiment: holdup assay; design: key: below the threshold = too weak to quantify, mostly under pKd 3.1 to 4; settings: plain residues with an end cap or a label only (N-terminal biotin on a linker: ado-ado)
T4 sequence (Q9Y3R0 247-346, limits assumed, looked up): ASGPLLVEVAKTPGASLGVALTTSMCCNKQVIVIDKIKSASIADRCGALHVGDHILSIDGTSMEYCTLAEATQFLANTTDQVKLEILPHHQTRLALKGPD

Binder | pKd
TGLWKHETTV [ADGRA3, Q8IWK6] | below the threshold
PYPTADHMLA [JUP, P14923] | below the threshold

biological target: GRIP2_7, Q9C0E4; experiment: holdup assay; design: key: below the threshold = too weak to quantify, mostly under pKd 3.1 to 4; settings: plain residues with an end cap or a label only (N-terminal biotin on a linker: ado-ado)
Sequence (Q9C0E4 934-1023): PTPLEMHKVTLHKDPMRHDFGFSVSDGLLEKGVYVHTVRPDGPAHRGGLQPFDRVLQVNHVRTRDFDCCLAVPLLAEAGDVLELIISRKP

Binder | pKd
TGLWKHETTV [ADGRA3, Q8IWK6] | below the threshold
PYPTADHMLA [JUP, P14923] | below the threshold

biological target: Inadl_5, Q8NI35; experiment: holdup assay; design: key: below the threshold = too weak to quantify, mostly under pKd 3.1 to 4; settings: plain residues with an end cap or a label only (N-terminal biotin on a linker: ado-ado)
Sequence (Q8NI35 673-780): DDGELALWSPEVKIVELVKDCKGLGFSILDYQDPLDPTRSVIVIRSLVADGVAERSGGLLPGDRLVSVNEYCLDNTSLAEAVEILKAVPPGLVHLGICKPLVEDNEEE

Binder | pKd
TGLWKHETTV [ADGRA3, Q8IWK6] | below the threshold
PYPTADHMLA [JUP, P14923] | below the threshold

biological target: T5, LIN7C, Q9NUP9; experiment: holdup assay; design: key: below the threshold = too weak to quantify, mostly under pKd 3.1 to 4; settings: plain residues with an end cap or a label only (N-terminal biotin on a linker: ado-ado)
T5 sequence (Q9NUP9 88-185, limits assumed, looked up): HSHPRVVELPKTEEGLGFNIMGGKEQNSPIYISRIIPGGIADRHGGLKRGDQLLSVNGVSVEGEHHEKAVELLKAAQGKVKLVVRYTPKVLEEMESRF

Binder | pKd
TGLWKHETTV [ADGRA3, Q8IWK6] | 4.6
PYPTADHMLA [JUP, P14923] | 3.87

biological target: T6, LNX2_3, Q8N448; experiment: holdup assay; design: key: below the threshold = too weak to quantify, mostly under pKd 3.1 to 4; settings: plain residues with an end cap or a label only (N-terminal biotin on a linker: ado-ado)
T6 sequence (Q8N448 463-564, limits assumed, looked up): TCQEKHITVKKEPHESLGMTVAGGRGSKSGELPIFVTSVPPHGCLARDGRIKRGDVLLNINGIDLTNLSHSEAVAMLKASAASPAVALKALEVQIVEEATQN

Binder | pKd
TGLWKHETTV [ADGRA3, Q8IWK6] | below the threshold
PYPTADHMLA [JUP, P14923] | below the threshold

biological target: MAGI1_2, Q96QZ7; experiment: holdup assay; design: key: below the threshold = too weak to quantify, mostly under pKd 3.1 to 4; settings: plain residues with an end cap or a label only (N-terminal biotin on a linker: ado-ado)
Sequence (Q96QZ7 456-580): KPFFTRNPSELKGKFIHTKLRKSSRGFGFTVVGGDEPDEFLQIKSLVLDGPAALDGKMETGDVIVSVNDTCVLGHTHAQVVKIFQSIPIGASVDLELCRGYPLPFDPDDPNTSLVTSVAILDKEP

Binder | pKd
TGLWKHETTV [ADGRA3, Q8IWK6] | 4.91
PYPTADHMLA [JUP, P14923] | below the threshold

biological target: MAGI2_2, Q86UL8; experiment: holdup assay; design: key: below the threshold = too weak to quantify, mostly under pKd 3.1 to 4; settings: plain residues with an end cap or a label only (N-terminal biotin on a linker: ado-ado)
Sequence (Q86UL8 410-522): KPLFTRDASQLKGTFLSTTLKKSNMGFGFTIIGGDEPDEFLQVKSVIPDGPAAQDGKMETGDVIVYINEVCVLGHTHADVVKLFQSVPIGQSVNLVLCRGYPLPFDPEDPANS

Binder | pKd
TGLWKHETTV [ADGRA3, Q8IWK6] | 5.22
PYPTADHMLA [JUP, P14923] | below the threshold

biological target: MAGI2_4, Q86UL8; experiment: holdup assay; design: key: below the threshold = too weak to quantify, mostly under pKd 3.1 to 4; settings: plain residues with an end cap or a label only (N-terminal biotin on a linker: ado-ado)
Sequence (Q86UL8 772-865): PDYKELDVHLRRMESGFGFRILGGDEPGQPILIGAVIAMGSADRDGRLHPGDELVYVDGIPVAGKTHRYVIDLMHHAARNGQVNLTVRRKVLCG

Binder | pKd
TGLWKHETTV [ADGRA3, Q8IWK6] | 4.77
PYPTADHMLA [JUP, P14923] | below the threshold

biological target: MAST1, Q9Y2H9; experiment: holdup assay; design: key: below the threshold = too weak to quantify, mostly under pKd 3.1 to 4; settings: plain residues with an end cap or a label only (N-terminal biotin on a linker: ado-ado)
Sequence (Q9Y2H9 962-1065): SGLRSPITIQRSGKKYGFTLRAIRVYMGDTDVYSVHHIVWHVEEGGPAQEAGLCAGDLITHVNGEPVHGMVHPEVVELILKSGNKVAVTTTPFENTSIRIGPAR

Binder | pKd
TGLWKHETTV [ADGRA3, Q8IWK6] | 4.78
PYPTADHMLA [JUP, P14923] | below the threshold

biological target: T7, MPP2, Q14168; experiment: holdup assay; design: key: below the threshold = too weak to quantify, mostly under pKd 3.1 to 4; settings: plain residues with an end cap or a label only (N-terminal biotin on a linker: ado-ado)
T7 sequence (Q14168 180-250, limits assumed, looked up): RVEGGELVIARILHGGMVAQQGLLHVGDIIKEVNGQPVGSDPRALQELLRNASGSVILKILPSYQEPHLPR

Binder | pKd
TGLWKHETTV [ADGRA3, Q8IWK6] | below the threshold
PYPTADHMLA [JUP, P14923] | below the threshold

biological target: T8, PARD3B_1, Q8TEW8; experiment: holdup assay; design: key: below the threshold = too weak to quantify, mostly under pKd 3.1 to 4; settings: plain residues with an end cap or a label only (N-terminal biotin on a linker: ado-ado)
T8 sequence (Q8TEW8 196-299, limits assumed, looked up): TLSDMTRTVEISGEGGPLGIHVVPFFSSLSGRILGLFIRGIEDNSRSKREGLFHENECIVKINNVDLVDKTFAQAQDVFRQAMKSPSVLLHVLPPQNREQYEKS

Binder | pKd
TGLWKHETTV [ADGRA3, Q8IWK6] | below the threshold
PYPTADHMLA [JUP, P14923] | below the threshold

biological target: T9, RADIL, Q96JH8; experiment: holdup assay; design: key: below the threshold = too weak to quantify, mostly under pKd 3.1 to 4; settings: plain residues with an end cap or a label only (N-terminal biotin on a linker: ado-ado)
T9 sequence (Q96JH8 971-1071, limits assumed, looked up): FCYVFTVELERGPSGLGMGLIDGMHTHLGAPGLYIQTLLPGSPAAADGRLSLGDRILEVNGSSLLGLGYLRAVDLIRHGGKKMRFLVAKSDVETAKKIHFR

Binder | pKd
TGLWKHETTV [ADGRA3, Q8IWK6] | 4.43
PYPTADHMLA [JUP, P14923] | below the threshold

biological target: T10, SIPA1L2, Q9P2F8; experiment: holdup assay; design: key: below the threshold = too weak to quantify, mostly under pKd 3.1 to 4; settings: plain residues with an end cap or a label only (N-terminal biotin on a linker: ado-ado)
T10 sequence (Q9P2F8 945-1036, limits assumed, looked up): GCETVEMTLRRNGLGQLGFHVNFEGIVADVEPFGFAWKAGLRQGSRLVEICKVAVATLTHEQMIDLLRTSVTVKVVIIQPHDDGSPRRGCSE

Binder | pKd
TGLWKHETTV [ADGRA3, Q8IWK6] | below the threshold
PYPTADHMLA [JUP, P14923] | below the threshold

biological target: T11, SNTG2, Q9NY99; experiment: holdup assay; design: key: below the threshold = too weak to quantify, mostly under pKd 3.1 to 4; settings: plain residues with an end cap or a label only (N-terminal biotin on a linker: ado-ado)
T11 sequence (Q9NY99 68-166, limits assumed, looked up): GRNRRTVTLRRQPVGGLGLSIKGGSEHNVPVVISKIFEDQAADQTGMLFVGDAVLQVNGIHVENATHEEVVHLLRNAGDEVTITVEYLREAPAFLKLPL

Binder | pKd
TGLWKHETTV [ADGRA3, Q8IWK6] | 4.25
PYPTADHMLA [JUP, P14923] | below the threshold

biological target: TJP1_2, Q07157; experiment: holdup assay; design: key: below the threshold = too weak to quantify, mostly under pKd 3.1 to 4; settings: plain residues with an end cap or a label only (N-terminal biotin on a linker: ado-ado)
Sequence (Q07157 181-274): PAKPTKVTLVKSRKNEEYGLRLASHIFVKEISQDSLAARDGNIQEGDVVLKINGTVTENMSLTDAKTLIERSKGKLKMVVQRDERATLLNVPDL

Binder | pKd
TGLWKHETTV [ADGRA3, Q8IWK6] | below the threshold
PYPTADHMLA [JUP, P14923] | below the threshold

biological target: TJP2_1, Q9UDY2; experiment: holdup assay; design: key: below the threshold = too weak to quantify, mostly under pKd 3.1 to 4; settings: plain residues with an end cap or a label only (N-terminal biotin on a linker: ado-ado)
Sequence (Q9UDY2 24-128): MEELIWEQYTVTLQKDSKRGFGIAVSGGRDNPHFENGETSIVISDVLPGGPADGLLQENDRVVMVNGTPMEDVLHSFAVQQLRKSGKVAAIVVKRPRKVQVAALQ

Binder | pKd
TGLWKHETTV [ADGRA3, Q8IWK6] | 3.65
PYPTADHMLA [JUP, P14923] | below the threshold

biological target: T12, TJP3_3, O95049; experiment: holdup assay; design: key: below the threshold = too weak to quantify, mostly under pKd 3.1 to 4; settings: plain residues with an end cap or a label only (N-terminal biotin on a linker: ado-ado)
T12 sequence (O95049 375-456, limits assumed, looked up): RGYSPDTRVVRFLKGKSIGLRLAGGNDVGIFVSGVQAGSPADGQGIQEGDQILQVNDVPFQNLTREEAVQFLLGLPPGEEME

Binder | pKd
TGLWKHETTV [ADGRA3, Q8IWK6] | below the threshold
PYPTADHMLA [JUP, P14923] | below the threshold
